Tests used:
alpha-thrombin [1] = molecular target: T1, alpha-thrombin (human, UniProt P00734;P00734 328-363;364-622); assay: SPRi
alpha-thrombin [2] = molecular target: T1, alpha-thrombin; assay: BLI
VEGF164 = molecular target: T2, VEGF164 (mouse, UniProt Q00731-2 27-190); assay: BLI
T2 sequence: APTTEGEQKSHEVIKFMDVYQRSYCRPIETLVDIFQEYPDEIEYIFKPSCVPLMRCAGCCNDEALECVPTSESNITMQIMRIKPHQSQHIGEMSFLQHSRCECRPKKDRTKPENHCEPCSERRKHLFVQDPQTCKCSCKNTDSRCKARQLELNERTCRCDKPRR

alpha-thrombin [3] = molecular target: T1, alpha-thrombin; assay: BLI; remark: listed apart in the source
MAPK1 = MAPK1 (UniProt P28482 1-360); assay: BLI
Sequence of MAPK1 (P28482 whole entry): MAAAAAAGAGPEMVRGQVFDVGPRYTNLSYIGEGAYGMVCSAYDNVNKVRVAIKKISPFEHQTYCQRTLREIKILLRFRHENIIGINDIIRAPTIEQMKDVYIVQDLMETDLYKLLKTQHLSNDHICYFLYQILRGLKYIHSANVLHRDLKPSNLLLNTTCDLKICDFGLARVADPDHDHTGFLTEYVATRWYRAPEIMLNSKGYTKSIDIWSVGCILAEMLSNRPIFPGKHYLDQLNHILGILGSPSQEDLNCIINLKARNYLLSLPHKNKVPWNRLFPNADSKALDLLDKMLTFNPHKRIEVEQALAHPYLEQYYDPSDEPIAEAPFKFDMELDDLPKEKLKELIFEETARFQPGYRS

VEGF165 = VEGF165 (human, UniProt P15692-4 27-191); assay: BLI
alpha-thrombin [4] = molecular target: T1, alpha-thrombin; assay: BLI; remark: listed apart in the source

GGGAACAAAGCUGAAGUACUUACCC (structured_RNA, 2'-F pyrimidines; PS2 at 3'-phosphate of U17) [AF113-18]
Kd (alpha-thrombin [1]): 4.5 ± 0.2 pM | Kd (alpha-thrombin [2]): 1 ± 0.1 pM | binding result (VEGF164): no binding | Kd (alpha-thrombin [3]): 1.8 ± 0.2 pM | binding result (MAPK1): no binding | binding result (VEGF165): no binding

GGGAACAAAGCUGAAGUACUUACCC (structured_RNA, 2'-F pyrimidines (from crystal construct; ST-2 not in material)) [AF113-1]
binding result (VEGF164): no binding | Kd (alpha-thrombin [4]): 1870 ± 36 pM | binding result (MAPK1): no binding | binding result (VEGF165): no binding

From PMC5041495
